Reference: publication PMC12209172, “Poly(ADP-ribose)polymerase 2 is zinc-dependent enzyme and nucleosome reorganizer” (Cellular and Molecular Life Sciences: CMLS, 2025)

Key:
NP nucleosomes = molecular target: T1, NP nucleosomes (Homo sapiens, UniProt Q9UGN5); experiment: EMSA of WGR domain-nucleosome complexes (0.7% agarose gel); assay type: binding, chicken; settings: no divalent cations or 2 mM Zn2+
T1 construct: WGR domain of PARP2 (residues 77–220) into pET-15b-TEV expression vector; 6xHis (pET-15b-TEV) (N, cleaved yes); made in house; host or cells: Escherichia coli Rosetta2 (DE3) pLysS (WGR)
Protocol: Sample preparation for EMSA was the same as for spFRET microscopy, although a slightly higher concentration of nucleosomes (2–3 nM) was used. […] Electrophoresis was performed under native conditions at 140 V, + 4 °C for ∼1.5 h. The gels were scanned using Amersham Typhoon RGB imager (Cytiva, Sweden). Fluorescence was excited in the gel at the 532 nm wavelength and recorded in the 570–610 nm (Cy3 signal) and 650–700 nm (FRET signal of Cy5) spectral regions. The resulting images were obtained in green (Cy3 signal) and red (FRET signal of Cy5) colors and merged.
Fig. 3 WGR domain of PARP2 binds zinc ions and reorganizes nucleosome structure. (a) A model of Zn^2+ binding to the WGR domain created on the basis of the PDB structure 6F5B. Two putative binding sites are shown. N- and C-terminal ends of the WGR domain are indicated. The numbering of the residues corresponds to the numbering of the complete PARP2 sequence. (b) CD spectra of the WGR domain (60 µM) in a buffer containing no divalent cations (Me^2+) or 0.5 mM Zn^2+ ions. (c) Content of canonical types of secondary structures in the WGR domain of PARP2 according to the analysis of CD spectra of the WGR domain measured in the absence or presence of 0.5 mM Zn^2+ ions. (d) Changes in the fluorescence spectra of tryptophan residues 148, 151 and 188 of the WGR domain (5 µM) at different concentrations of Zn^2+ ions. […]

Nd nucleosomes = molecular target: T2, Nd nucleosomes (Homo sapiens, UniProt Q9UGN5); experiment: Fluorescence microscopy of Nd nucleosomes binding to His-tagged WGR immobilized on Ni-NTA beads; design: species or system chicken; settings: beads with immobilized His-tagged WGR vs without
T2 construct: WGR domain of PARP2 (residues 77–220) into pET-15b-TEV expression vector; made in house; host or cells: Escherichia coli Rosetta2 (DE3) pLysS
Protocol: The binding of nucleosomes to the WGR domain was confirmed after immobilization of the protein containing His-tag on the surface of Ni-NTA beads using fluorescence microscopy (Figure S6).
Figure S6. Confocal fluorescence (a, c, e) and transmitted-light (b, d, f) imaging of Ni-NTA beads with (a, b, e, f) or without
(c, d) immobilized 6 ×His-WGR. The beads were additionally incubated with Nd nucleosomes (a, b, c, d). The parameters of
measurements and intensity scales in fluorescent images(a, c, e)are the same. […]

B1: WGR domain: recombinant WGR domain of PARP2 (residues 77–220) expressed in Escherichia coli (protein, UniProt O88554 77-220, looked up, fragment)
chain: ECAAKLGKAHVYCEGDDVYDVMLNQTNLQFNNNKYYLIQLLEDDAQRNFSVWMRWGRVGKTGQHSLVTCSGDLNKAKEIFQKKFLDKTKNNWEDRENFEKVPGKYDMLQMDYAASTQDESKTKEEETLKPESQLDLRVQELLKL
modifications: WGR domain
notes: recombinant WGR domain of PARP2 (residues 77–220) expressed in Escherichia coli
binding of the WGR domain to nucleosomes (NP nucleosomes): binds to nucleosomes in the presence and absence of Zn^2+ ions | binding of Nd nucleosomes to Ni-NTA beads (Nd nucleosomes): strongly increased
